Columns and labels:
[1] = Heat stability of activity; assay type: physicochemical
[2] = tested on: Bacillus cereus; experiment: Growth inhibition; assay type: cell-based
[3] = Polarity calculation from RP-HPLC elution; assay type: physicochemical; settings: calculated from elution at 33.3% acetonitrile, RP-HPLC C18 (Snyder formula)
Experimental: The polarity was calculated from the percentage of acetonitrile at which the substance eluted according to the formula given by Snyder (Snyder, L. R., 1978, Chromatogr. Sci. 16:223-234).

[4] = tested on: Staphylococcus epidermidis 1656; experiment: Sensitivity titer of multi-drug resistant staphylococci clinical isolates; assay type: cell-based; settings: resistant to AM-K-S-CF-E-P-Cl-TE
Experimental: (§1) Trypticase Soy Agar (Difco Laboratories, Detroit, Mich.) plates enriched with 0.3% yeast extract were overlaid with 5 ml of melted TSAYE containing a standardized suspension (0.2 ml of an exponentially growing culture at an optical density of 0.1 at 600 nm) of Micrococcus luteus ATCC 272 (ATCC, Rockville, Md.). In order to assess the activity of mutacin samples, two-fold dilutions were prepared in 0.11% TFA (Sigma Chemical Co., St. Louis, Mo.) and 5 μl of each dilution deposited on top of the indicator plates. Mutacin activity was expressed in arbitrary units, which correspond to the reciprocal of the last dilution giving a clear inhibition zone against M. luteus after 24 h of incubation at 37° C. under aerobic conditions (Parrot et al., 1989, Can. J. Microbiol. 35:366-372).
(§2) The sensitivity of multi-drug resistant strains to mutacin B-Ny266 purified to homogeneity was assessed. In parallel the sensitivity of these strains to nisin was determined.

[5] = tested on: Staphylococcus haemolyticus 2344; experiment: as above; assay type: cell-based; settings: resistant to AM-K-S-CF-E-P-Cl-TE
Experimental: as §1, §2

[6] = tested on: Staphylococcus epidermidis 3176; experiment: as above; assay type: cell-based; settings: resistant to AM-GM-K-CF-E-P-Cl
Experimental: as §1, §2

[7] = tested on: Flavobacterium capsulatum; experiment: Growth inhibition; assay type: cell-based; settings: a Gram-negative strain
[8] = tested on: Clostridium bifermentants; experiment: Growth inhibition; assay type: cell-based
[9] = Stability of activity to enzymes; assay type: physicochemical
[10] = tested on: Micrococcus luteus ATCC 272; experiment: Sensitivity titer on a lawn of the tested strain (control strain); assay type: cell-based; settings: Micrococcus luteus ATCC 272 (control); antibiotic resistance: None
Experimental: as §1, §2

[11] = tested on: Neisseria subflava; experiment: Growth inhibition; assay type: cell-based

Mutacin B-Ny266: type A lantibiotic produced by Streptococcus mutans B-Ny266; F-K-A-W-U-F-A-Abu-P-G-A-A-K-O-G-A-F-N-U-Y-A-SADC
resistance to temperature ([1]; 100° C. for 30 min): resistant
activity after heat treatment ([1]; 121° C. for 30 min): destroyed
growth inhibition [2]: inhibits the growth
polarity [3]: 8.067
titer (highest dilution producing an inhibitory zone on a lawn of the tested strain) [4]: 16
titer (highest dilution producing an inhibitory zone on a lawn of the tested strain) [5]: 16
titer (highest dilution producing an inhibitory zone on a lawn of the tested strain) [6]: 16
growth inhibition [7]: inhibit
growth inhibition [8]: inhibits the growth
activity after enzyme treatment ([9]; alpha-chymotrypsin): destroyed
resistance to enzymes ([9]; many enzymes): resistant
activity after enzyme treatment ([9]; papain): destroyed
activity after enzyme treatment ([9]; pronase E): destroyed
activity after enzyme treatment ([9]; proteinase K): destroyed
activity after enzyme treatment ([9]; trypsin): destroyed
titer (highest dilution producing an inhibitory zone on a lawn of the tested strain) [10]: 64
growth inhibition [11]: inhibits the growth
